In the Human Domainome abundance scans (Beltran et al. 2025):
± gives the uncertainty stated by the source.

B1: Transcription factor SOX-11, residues 50 to 117; numbered along this chain, P35716 (parent)
chain: KRPMNAFMVWSKIERRKIMEQSPDMHNAEISKRLGKRWKMLKDSEKIPFIREAERLRLKHMADYPDYK

Variants of: B1
Experiment: abundance fitness (aPCA) (normalised: wild type 0, dead -1); higher = more abundant; growth selection in yeast, the domain comes from the species named
Settings: Homo sapiens

Abundance fitness: each site, then its substitutions
K46: F -0.987 ± 0.087 | G -0.671 ± 0.1 | H -0.718 ± 0.08 | I -0.595 ± 0.065 | L -0.982 ± 0.11 | M -0.85 ± 0.3 | P -0.844 ± 0.14 | S -0.996 ± 0.08 | T -0.619 ± 0.089 | V -0.647 ± 0.084 | W -0.995 ± 0.27 | Y -0.968 ± 0.081
I47: A 0.061 ± 0.051 | C -0.567 ± 0.048 | D -0.107 ± 0.045 | E 0.259 ± 0.067 | F -0.23 ± 0.045 | G -0.259 ± 0.042 | H -0.46 ± 0.053 | K -0.198 ± 0.077 | L 0.162 ± 0.042 | M 0.101 ± 0.072 | N -0.529 ± 0.05 | P -1.04 ± 0.13 | S -0.279 ± 0.04 | T -0.051 ± 0.057 | V -0.097 ± 0.041 | W -0.176 ± 0.083
P48: A -0.664 ± 0.14 | C -0.634 ± 0.087 | D -0.656 ± 0.12 | E -0.386 ± 0.22 | F -0.285 ± 0.075 | G -0.384 ± 0.098 | H -0.355 ± 0.075 | I -0.43 ± 0.089 | K -0.69 ± 0.2 | L -0.572 ± 0.098 | N -0.598 ± 0.093 | Q -0.24 ± 0.16 | R -0.604 ± 0.12 | S -0.617 ± 0.086 | T -0.719 ± 0.11 | V -0.261 ± 0.077 | W -0.577 ± 0.24
F49: A -0.761 ± 0.093 | E -0.792 ± 0.46 | G -0.739 ± 0.076 | H -0.739 ± 0.11 | I -0.694 ± 0.074 | L -0.731 ± 0.09 | M -0.301 ± 0.2 | N -0.881 ± 0.1 | R -0.767 ± 0.091 | S -0.566 ± 0.065 | T -0.558 ± 0.097 | V -0.635 ± 0.067 | W -0.256 ± 0.11 | Y 0.048 ± 0.053
I50: A -0.287 ± 0.074 | C -0.59 ± 0.072 | D -0.425 ± 0.071 | E 0.248 ± 0.11 | F -0.034 ± 0.052 | G -0.555 ± 0.071 | H -0.005 ± 0.06 | K -0.228 ± 0.17 | L -0.161 ± 0.063 | M 0.013 ± 0.14 | N -0.323 ± 0.069 | P -0.617 ± 0.14 | Q -0.007 ± 0.18 | R -0.01 ± 0.059 | S -0.509 ± 0.057 | W -0.437 ± 0.14
R51: A -0.069 ± 0.054 | C -0.304 ± 0.058 | D -0.129 ± 0.058 | F -0.411 ± 0.055 | G -0.606 ± 0.068 | H -0.289 ± 0.073 | I -0.104 ± 0.051 | K -0.054 ± 0.12 | L -0.125 ± 0.054 | M 0.141 ± 0.14 | P -0.473 ± 0.11 | Q 0.189 ± 0.15 | S -0.495 ± 0.053 | T -0.29 ± 0.075 | V -0.075 ± 0.049 | Y -0.238 ± 0.058
E52: A -0.462 ± 0.084 | C -0.515 ± 0.064 | D -0.438 ± 0.088 | F -0.546 ± 0.067 | H -0.564 ± 0.078 | I -0.278 ± 0.061 | K -0.577 ± 0.16 | M -0.396 ± 0.12 | N -0.793 ± 0.12 | P -0.982 ± 0.15 | Q -1.04 ± 0.34 | R -0.735 ± 0.076 | S -0.785 ± 0.072 | T -0.397 ± 0.079 | V -0.404 ± 0.057 | W -0.605 ± 0.14 | Y -0.598 ± 0.082
A53: C -0.728 ± 0.084 | D -0.961 ± 0.12 | E -0.622 ± 0.18 | F -0.64 ± 0.081 | G -0.946 ± 0.087 | H -0.741 ± 0.1 | I -0.709 ± 0.098 | K -1.12 ± 0.34 | L -0.747 ± 0.095 | M -0.33 ± 0.19 | N -0.474 ± 0.11 | P -0.478 ± 0.11 | R -0.77 ± 0.087 | S -0.506 ± 0.056 | T -0.649 ± 0.11 | V -0.749 ± 0.085 | W -0.91 ± 0.2 | Y -0.813 ± 0.09
E54: A -0.425 ± 0.072 | C -0.42 ± 0.089 | D -0.323 ± 0.066 | F -0.762 ± 0.085 | G -0.714 ± 0.085 | H -0.641 ± 0.097 | I -0.751 ± 0.091 | K -0.826 ± 0.24 | L -0.601 ± 0.083 | M -0.833 ± 0.34 | N -0.241 ± 0.063 | P -0.925 ± 0.16 | Q -0.364 ± 0.16 | R -0.74 ± 0.1 | T -0.7 ± 0.12 | V -0.671 ± 0.074 | W -0.576 ± 0.36 | Y -0.335 ± 0.067
R55: C -0.416 ± 0.057 | D -0.119 ± 0.058 | E -0.017 ± 0.14 | F -0.356 ± 0.071 | G -0.313 ± 0.055 | H -0.213 ± 0.06 | I -0.246 ± 0.067 | K -0.177 ± 0.15 | M -0.521 ± 0.15 | N -0.087 ± 0.055 | P -0.868 ± 0.19 | S -0.146 ± 0.049 | V -0.343 ± 0.063 | W -0.277 ± 0.19 | Y -0.43 ± 0.061
L56: C -0.533 ± 0.078 | D -0.247 ± 0.069 | E -0.212 ± 0.18 | F -0.377 ± 0.056 | G -0.39 ± 0.066 | I -0.176 ± 0.058 | K -0.664 ± 0.23 | M 0.079 ± 0.16
